Source: patent US20240270846A1 (published 2024)

Target: T1, CD3 epsilon homodimer protein (UniProt P07766 23-126)
T1 construct: construct not described; homodimer as printed; also called CD3 (CD3 epsilon)
Assay: SPR Biacore T200, CD3 epsilon homodimer immobilized; vs unaltered GLS3000;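 note: antibody variants flowed as analyte over CD3 epsilon homodimer amine-coupled to a CM4 chip, at 25 °C in HBS-EP+ running buffer, fitted with Biacore T200 Evaluation Software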

T1 sequence (P07766 23-126): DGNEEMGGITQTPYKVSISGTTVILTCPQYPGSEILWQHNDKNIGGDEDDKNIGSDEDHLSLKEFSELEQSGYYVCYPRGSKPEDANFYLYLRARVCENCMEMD

Row | KD ratio to GLS3000 (Affinity up) | Binder
1 | 7.48 | GLS3000 H27dQ (Kabat) L chain altered form, one-arm antibody with CE115HA000 (antibody, human IgG1, kappa, L234A L235A, N297A, name in Kabat numbering, one-arm antibody) heavy: QVQLVESGGGVVQPGRSLRLSCAASGFTFSNAWMHWVRQAPGKGLEWVAQIKAKSNNYATYYAESVKGRFTISRDDSKNSLYLQMNSLKTEDTAVYYCRYVHYGAYYGVDAWGQGTTVTVSSASTKGPSVFPLAPSSKSTSGGTAALGCLVKDYFPEPVTVSWNSGALTSGVHTFPAVLQSSGLYSLSSVVTVPSSSLGTQTYICNVNHKPSNTKVDKKVEPKSCDKTHTCPPCPAPEAAGGPSVFLFPPKPKDTLMISRTPEVTCVVVDVSHEDPEVKFNWYVDGVEVHNAKTKPREEQYASTYRVVSVLTVLHQDWLNGKEYKCKVSNKALPAPIEKTISKAKGQPREPQVYTLPPSRCELTKNQVSLSCAVKGFYPSDIAVEWESNGQPENNYKTTPPVLDSDGSFFLVSKLTVDKSRWQQGNVFSCSVMHEALHNHYTQKSLSLSPDYKDDDDK EPKSSDKTHTCPPCPAPELLGGPSVFLFPPKPKDTLMISRTPEVTCVVVDVSHEDPEVKFNWYVDGVEVHNAKTKPREEQYNSTYRVVSVLTVLHQDWLNGKEYKCKVSNKALPAPIEKTISKAKGQPREPQVCTLPPSRDELTKNQVSLWCLVKGFYPSDIAVEWESNGQPENNYKTTPPVLDSDGSFFLYSKLTVDKSRWQQGNVFSCSVMHEALHNRYTQKSLSLSP light: DIVMTQSPLSLPVTPGEPASISCRSSQSLVQSNRNTYLHWYQQKPGQAPRLLIYKVSNRFSGVPDRFSGSGSGTDFTLKISRVEAEDVGVYYCGQGTQVPYTFGQGTKLEIKRTVAAPSVFIFPPSDEQLKSGTASVVCLLNNFYPREAKVQWKVDNALQSGNSQESVTEQDSKDSTYSLSSTLTLSKADYEKHKVYACEVTHQGLSSPVTKSFNRGEC
2 | 2.35 | GLS3000 H27dR (Kabat) L chain altered form, one-arm antibody with CE115HA000 (antibody, human IgG1, kappa, L234A L235A, N297A, name in Kabat numbering, one-arm antibody) heavy: QVQLVESGGGVVQPGRSLRLSCAASGFTFSNAWMHWVRQAPGKGLEWVAQIKAKSNNYATYYAESVKGRFTISRDDSKNSLYLQMNSLKTEDTAVYYCRYVHYGAYYGVDAWGQGTTVTVSSASTKGPSVFPLAPSSKSTSGGTAALGCLVKDYFPEPVTVSWNSGALTSGVHTFPAVLQSSGLYSLSSVVTVPSSSLGTQTYICNVNHKPSNTKVDKKVEPKSCDKTHTCPPCPAPEAAGGPSVFLFPPKPKDTLMISRTPEVTCVVVDVSHEDPEVKFNWYVDGVEVHNAKTKPREEQYASTYRVVSVLTVLHQDWLNGKEYKCKVSNKALPAPIEKTISKAKGQPREPQVYTLPPSRCELTKNQVSLSCAVKGFYPSDIAVEWESNGQPENNYKTTPPVLDSDGSFFLVSKLTVDKSRWQQGNVFSCSVMHEALHNHYTQKSLSLSPDYKDDDDK EPKSSDKTHTCPPCPAPELLGGPSVFLFPPKPKDTLMISRTPEVTCVVVDVSHEDPEVKFNWYVDGVEVHNAKTKPREEQYNSTYRVVSVLTVLHQDWLNGKEYKCKVSNKALPAPIEKTISKAKGQPREPQVCTLPPSRDELTKNQVSLWCLVKGFYPSDIAVEWESNGQPENNYKTTPPVLDSDGSFFLYSKLTVDKSRWQQGNVFSCSVMHEALHNRYTQKSLSLSP light: DIVMTQSPLSLPVTPGEPASISCRSSQSLVRSNRNTYLHWYQQKPGQAPRLLIYKVSNRFSGVPDRFSGSGSGTDFTLKISRVEAEDVGVYYCGQGTQVPYTFGQGTKLEIKRTVAAPSVFIFPPSDEQLKSGTASVVCLLNNFYPREAKVQWKVDNALQSGNSQESVTEQDSKDSTYSLSSTLTLSKADYEKHKVYACEVTHQGLSSPVTKSFNRGEC
3 | 13000 | GLS3000 H27dT (Kabat) L chain altered form, one-arm antibody with CE115HA000 (antibody, human IgG1, kappa, L234A L235A, N297A, name in Kabat numbering, one-arm antibody) heavy: QVQLVESGGGVVQPGRSLRLSCAASGFTFSNAWMHWVRQAPGKGLEWVAQIKAKSNNYATYYAESVKGRFTISRDDSKNSLYLQMNSLKTEDTAVYYCRYVHYGAYYGVDAWGQGTTVTVSSASTKGPSVFPLAPSSKSTSGGTAALGCLVKDYFPEPVTVSWNSGALTSGVHTFPAVLQSSGLYSLSSVVTVPSSSLGTQTYICNVNHKPSNTKVDKKVEPKSCDKTHTCPPCPAPEAAGGPSVFLFPPKPKDTLMISRTPEVTCVVVDVSHEDPEVKFNWYVDGVEVHNAKTKPREEQYASTYRVVSVLTVLHQDWLNGKEYKCKVSNKALPAPIEKTISKAKGQPREPQVYTLPPSRCELTKNQVSLSCAVKGFYPSDIAVEWESNGQPENNYKTTPPVLDSDGSFFLVSKLTVDKSRWQQGNVFSCSVMHEALHNHYTQKSLSLSPDYKDDDDK EPKSSDKTHTCPPCPAPELLGGPSVFLFPPKPKDTLMISRTPEVTCVVVDVSHEDPEVKFNWYVDGVEVHNAKTKPREEQYNSTYRVVSVLTVLHQDWLNGKEYKCKVSNKALPAPIEKTISKAKGQPREPQVCTLPPSRDELTKNQVSLWCLVKGFYPSDIAVEWESNGQPENNYKTTPPVLDSDGSFFLYSKLTVDKSRWQQGNVFSCSVMHEALHNRYTQKSLSLSP light: DIVMTQSPLSLPVTPGEPASISCRSSQSLVTSNRNTYLHWYQQKPGQAPRLLIYKVSNRFSGVPDRFSGSGSGTDFTLKISRVEAEDVGVYYCGQGTQVPYTFGQGTKLEIKRTVAAPSVFIFPPSDEQLKSGTASVVCLLNNFYPREAKVQWKVDNALQSGNSQESVTEQDSKDSTYSLSSTLTLSKADYEKHKVYACEVTHQGLSSPVTKSFNRGEC
4 | 3.05 | GLS3000 H27dS (Kabat) L chain altered form, one-arm antibody with CE115HA000 (antibody, human IgG1, kappa, L234A L235A, N297A, name in Kabat numbering, one-arm antibody) heavy: QVQLVESGGGVVQPGRSLRLSCAASGFTFSNAWMHWVRQAPGKGLEWVAQIKAKSNNYATYYAESVKGRFTISRDDSKNSLYLQMNSLKTEDTAVYYCRYVHYGAYYGVDAWGQGTTVTVSSASTKGPSVFPLAPSSKSTSGGTAALGCLVKDYFPEPVTVSWNSGALTSGVHTFPAVLQSSGLYSLSSVVTVPSSSLGTQTYICNVNHKPSNTKVDKKVEPKSCDKTHTCPPCPAPEAAGGPSVFLFPPKPKDTLMISRTPEVTCVVVDVSHEDPEVKFNWYVDGVEVHNAKTKPREEQYASTYRVVSVLTVLHQDWLNGKEYKCKVSNKALPAPIEKTISKAKGQPREPQVYTLPPSRCELTKNQVSLSCAVKGFYPSDIAVEWESNGQPENNYKTTPPVLDSDGSFFLVSKLTVDKSRWQQGNVFSCSVMHEALHNHYTQKSLSLSPDYKDDDDK EPKSSDKTHTCPPCPAPELLGGPSVFLFPPKPKDTLMISRTPEVTCVVVDVSHEDPEVKFNWYVDGVEVHNAKTKPREEQYNSTYRVVSVLTVLHQDWLNGKEYKCKVSNKALPAPIEKTISKAKGQPREPQVCTLPPSRDELTKNQVSLWCLVKGFYPSDIAVEWESNGQPENNYKTTPPVLDSDGSFFLYSKLTVDKSRWQQGNVFSCSVMHEALHNRYTQKSLSLSP light: DIVMTQSPLSLPVTPGEPASISCRSSQSLVSSNRNTYLHWYQQKPGQAPRLLIYKVSNRFSGVPDRFSGSGSGTDFTLKISRVEAEDVGVYYCGQGTQVPYTFGQGTKLEIKRTVAAPSVFIFPPSDEQLKSGTASVVCLLNNFYPREAKVQWKVDNALQSGNSQESVTEQDSKDSTYSLSSTLTLSKADYEKHKVYACEVTHQGLSSPVTKSFNRGEC
